Experimental data taken from article PMC6068105.

Legend:
[1] = molecular target: recombinant mouse α5β1 integrin protein (mouse) (UniProt P11688); test: SPR; Biacore T100, 25 °C; α5β1 integrin (1 μg/ml) captured by anti-α5 integrin antibody on CM5 chip; CSGal-1 injected at 30 μl/min; 10 mM HEPES pH 7.4, 150 mM NaCl, 3 mM EDTA, 0.0005% TWEEN-20; steady-state model
[2] = molecular target: Human plasma fibronectin (human); test: SPR; Biacore T100, 25 °C; fibronectin (10 μg/ml) directly immobilized on CM5 chip; CSGal-1 injected at 30 μl/min; 10 mM HEPES pH 7.4, 150 mM NaCl, 3 mM EDTA, 0.0005% TWEEN-20; steady-state model
Human plasma fibronectin (human), sequence (P02751 other isoform, or with tags, fused parts or gaps): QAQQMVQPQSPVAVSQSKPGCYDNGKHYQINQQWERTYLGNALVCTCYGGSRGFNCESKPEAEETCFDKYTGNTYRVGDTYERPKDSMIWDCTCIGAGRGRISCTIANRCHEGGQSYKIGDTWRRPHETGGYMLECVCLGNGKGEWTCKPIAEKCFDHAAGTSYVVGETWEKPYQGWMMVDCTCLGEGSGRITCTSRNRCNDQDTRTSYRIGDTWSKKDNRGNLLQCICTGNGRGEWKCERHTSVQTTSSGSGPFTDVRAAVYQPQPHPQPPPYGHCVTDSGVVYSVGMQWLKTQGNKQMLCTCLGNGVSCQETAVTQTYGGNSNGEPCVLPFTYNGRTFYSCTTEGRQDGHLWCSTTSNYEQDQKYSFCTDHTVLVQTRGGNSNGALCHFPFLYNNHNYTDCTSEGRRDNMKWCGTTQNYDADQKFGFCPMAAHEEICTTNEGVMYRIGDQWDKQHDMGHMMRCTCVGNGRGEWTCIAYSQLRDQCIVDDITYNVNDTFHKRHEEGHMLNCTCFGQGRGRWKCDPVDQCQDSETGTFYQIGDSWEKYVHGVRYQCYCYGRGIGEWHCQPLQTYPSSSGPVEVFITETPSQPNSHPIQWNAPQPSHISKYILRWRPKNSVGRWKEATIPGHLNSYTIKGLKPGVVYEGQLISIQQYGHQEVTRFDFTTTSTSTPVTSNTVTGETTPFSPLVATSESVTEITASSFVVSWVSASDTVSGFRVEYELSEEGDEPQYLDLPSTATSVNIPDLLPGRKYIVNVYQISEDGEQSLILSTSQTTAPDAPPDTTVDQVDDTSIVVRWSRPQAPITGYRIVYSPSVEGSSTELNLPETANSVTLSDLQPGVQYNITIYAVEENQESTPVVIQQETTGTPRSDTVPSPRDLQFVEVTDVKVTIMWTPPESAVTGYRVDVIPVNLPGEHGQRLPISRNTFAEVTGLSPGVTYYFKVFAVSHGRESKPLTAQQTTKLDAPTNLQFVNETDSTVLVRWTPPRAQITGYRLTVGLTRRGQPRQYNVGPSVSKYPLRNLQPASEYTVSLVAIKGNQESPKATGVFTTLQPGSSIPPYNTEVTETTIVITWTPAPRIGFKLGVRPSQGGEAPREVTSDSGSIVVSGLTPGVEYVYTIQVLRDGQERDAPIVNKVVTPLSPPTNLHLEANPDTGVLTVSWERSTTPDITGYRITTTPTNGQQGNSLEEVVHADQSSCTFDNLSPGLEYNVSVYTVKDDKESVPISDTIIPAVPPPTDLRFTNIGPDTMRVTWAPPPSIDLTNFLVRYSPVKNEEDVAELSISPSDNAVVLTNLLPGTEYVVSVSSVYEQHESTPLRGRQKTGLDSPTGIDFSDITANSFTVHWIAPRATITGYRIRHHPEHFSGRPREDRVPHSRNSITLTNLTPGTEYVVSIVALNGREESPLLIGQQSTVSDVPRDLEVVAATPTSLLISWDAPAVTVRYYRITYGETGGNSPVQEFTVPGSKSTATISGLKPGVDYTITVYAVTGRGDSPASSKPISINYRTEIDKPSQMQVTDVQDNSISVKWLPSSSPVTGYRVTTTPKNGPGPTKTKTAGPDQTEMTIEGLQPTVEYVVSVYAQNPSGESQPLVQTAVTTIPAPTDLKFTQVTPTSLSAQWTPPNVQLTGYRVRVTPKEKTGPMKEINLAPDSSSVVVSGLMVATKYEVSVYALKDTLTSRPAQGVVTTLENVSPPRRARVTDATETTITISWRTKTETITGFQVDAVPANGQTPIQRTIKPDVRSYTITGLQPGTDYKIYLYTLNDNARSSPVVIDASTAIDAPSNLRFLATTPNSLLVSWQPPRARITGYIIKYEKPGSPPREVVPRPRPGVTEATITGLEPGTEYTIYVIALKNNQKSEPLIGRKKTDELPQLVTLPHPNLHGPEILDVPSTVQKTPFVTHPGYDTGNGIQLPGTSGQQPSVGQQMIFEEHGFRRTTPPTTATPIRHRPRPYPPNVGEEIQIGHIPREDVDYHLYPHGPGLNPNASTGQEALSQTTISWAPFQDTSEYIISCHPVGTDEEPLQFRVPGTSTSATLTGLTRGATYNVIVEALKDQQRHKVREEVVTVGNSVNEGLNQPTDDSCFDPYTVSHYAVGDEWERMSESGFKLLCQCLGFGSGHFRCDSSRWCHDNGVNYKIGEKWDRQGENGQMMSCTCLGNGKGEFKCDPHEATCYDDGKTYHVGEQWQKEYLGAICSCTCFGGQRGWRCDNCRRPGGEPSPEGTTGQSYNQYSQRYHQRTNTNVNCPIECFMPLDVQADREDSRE

Kd [1]: 0.852 µM
Kd [2]: 12.4 µM
Substance: CSGal-1, cysteine-less mutant of human galectin-1, tag-free recombinant protein (from UniProt P09382 1-135) (natural protein)
